# Assay results taken from US20100168031.
# Columns and labels:
# [1] = test system: compounds of SEQ ID NO:12; SEQ ID NO: 13; or SEQ ID NO: 14
# [2] = test system: L(+)-biotinyl-aminohexanoyl-Glu-Ser-Ile-Asp-Asp-Tyr-Val-Asn-Val-Pro-Glu-Gly-OH (SEQ ID NO:13)
# [3] = test system: L(+)-biotinyl-aminohexanoyl-Glu-Asp-Glu-Asp-Asp-Tyr-His-Asn-Pro-Gly-Gly-OH (SEQ ID NO:14)
# [4] = test system: L(+)-biotinyl-aminohexanoyl-Glu-Glu-Gly-Ala-Pro-Asp-Tyr-Glu-Asn-Leu-Gln-Glu-Leu-Asn (SEQ ID NO:12)
substance,measurement,setting,value
recombinant full-length human Syk (p72syk protein tyrosine kinase),"fluorescence units (TR-FRET phosphorylation assay, 370 nM peptide, 10 nM Syk, 20 µM ATP)",[1],"20,000 to 30,000 fluorescence units"
same,"phosphorylation of the peptide by the kinase, time resolved fluorescence resonance energy transfer",[2],are phosphorylated by Syk
same,"phosphorylation of the peptide by the kinase, time resolved fluorescence resonance energy transfer",[3],are phosphorylated by Syk
same,"phosphorylation of the peptide by the kinase, time resolved fluorescence resonance energy transfer",[4],are phosphorylated by Syk
